Measured values taken from patent US20090281024A1.

Columns and labels:
[1] = target: MAT CR12 (matriptase CR pair 1-2) (human) (UniProt Q9Y5Y6); assay: relative binding signal under isomolar conditions on MAT CR12 (heading of the figure); solid-phase binding assay
[2] = target: LRP2 CR89 Y1042W V1047D (human) (UniProt P98164); assay: solid-phase assay, coated CR protein
[3] = target: LRP2 CR89 Y1042W V1047D R1088D (human) (UniProt P98164); assay: solid-phase assay, coated CR protein

Chain of LRP2 CR89 Y1042W V1047D (human) (P98164 1022-1105 Y1043W/V1048D limits assumed): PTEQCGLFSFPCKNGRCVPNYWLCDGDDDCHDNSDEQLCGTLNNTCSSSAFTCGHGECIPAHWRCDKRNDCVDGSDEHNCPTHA
Chain of RAP d3 (wild-type third domain of the receptor-associated protein) (P30533 235-353): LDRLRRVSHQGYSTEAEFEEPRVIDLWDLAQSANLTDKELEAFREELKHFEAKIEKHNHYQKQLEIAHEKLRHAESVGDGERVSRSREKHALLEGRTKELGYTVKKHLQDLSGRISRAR
Chain of MAT CR12 (matriptase CR pair 1-2) (human) (Q9Y5Y6 452-524 limits assumed): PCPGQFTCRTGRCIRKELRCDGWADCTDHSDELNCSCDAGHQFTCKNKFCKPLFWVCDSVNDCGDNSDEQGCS

fnctn (relative binding signal under isomolar conditions) [1] | % max bind [2] | % max bind [3] | Substance
0.65 |  |  | MatRAP1 N-42 (from UniProt P30533 277-353) (designed binder)
 | 11% | 15% | RAP d3 (wild-type third domain of the receptor-associated protein) (from UniProt P30533 235-353) (ligand)
